Our source for the stoichiometry N and Kd values is publication PMC8677947.

The target in assay [1] is GCN4^WT (leucine zipper dimerization element of GCN4), C-terminal 6x His-tagged (yeast). Description: native gel or EMSA; native (nondenaturing) PAGE beside SDS-PAGE of GCN4^WT and GCN4^3mut. For orientation: Mobility shift assays separate free from complexed probe on a gel.
Assay [2] deals with GCN4 leucine zipper (Saccharomyces cerevisiae) (UniProt P03069). To be noted: cited from earlier work.

Chain of GCN4 leucine zipper (P03069 250-277): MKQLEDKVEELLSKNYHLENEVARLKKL
Chain of GCN4^WT (leucine zipper dimerization element of GCN4), C-terminal 6x His-tagged (domain or fragment) (P03069 whole entry, the tested form may be a part): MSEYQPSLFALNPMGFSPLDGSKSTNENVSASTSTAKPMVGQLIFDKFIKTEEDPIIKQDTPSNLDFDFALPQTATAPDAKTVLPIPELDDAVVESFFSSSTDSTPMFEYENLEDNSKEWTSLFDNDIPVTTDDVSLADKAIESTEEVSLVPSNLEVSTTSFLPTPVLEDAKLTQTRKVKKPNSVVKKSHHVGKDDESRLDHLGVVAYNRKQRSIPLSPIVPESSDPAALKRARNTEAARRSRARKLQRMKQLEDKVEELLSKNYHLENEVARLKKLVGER

“GCN4^WT (leucine zipper dimerization element of GCN4), C-terminal 6x His-tagged (domain or fragment)”: the stoichiometry N in assay [1] was 2.
Turning to “GCN4 leucine zipper (from UniProt P03069)”, in assay [2], the Kd is 0.18 nM.

One may read the stoichiometry N as the number of molecules, sites or subunits per partner or assembly. As usually defined, the Kd is a measure of binding affinity in units of concentration.
